Tests used:
[1] = molecular target: FGFRs expressed on NIH3T3 cells; experiment: equilibrium titration of His-tagged FGF1 on FGFR-expressing NIH3T3 cells at 4 °C, flow cytometry with anti-His antibody
[2] = molecular target: FGFRs expressed on NIH3T3 cells; experiment: cell-based or functional assay

Row | Kd [1] [nM] | inhibition of ERK phosphorylation induced by 1 nM wild type FGF1 in NIH3T3 cells (Western blot against phosphoERK) [2] [nM] | Substance
1 | 10 | – | recombinant soluble wild-type FGF1 with N-terminal 6x His tag (from UniProt P14210 16-155) (ligand)
2 | – | 1 | FGF1 L131R mutant, recombinant soluble, His-tagged (from UniProt P14210 16-155) (ligand)

— patent US20220023385A1
